Laboratory results: patent publication US20230189818A1, “RNA-BASED CONTROL OF BOTRYTIS” (priority 2021, published 2023)

Key:
[1] = system: Botrytis cinerea isolate (B05.10); assay: Detached leaf assay (tomato leaflets, lesion size); type: in vivo; conditions: five days post inoculation, vs untreated inoculated control
Outline: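 Tomato (Brandywine) detached lateral leaflets were sprayed with treatment in 0.03% Silwet L-77 24 h before inoculation. Two 10 μL drops of 1×10^5 conidia/mL in 7% grape juice were applied per leaflet, which was then incubated at 23 °C, ~75% RH, 12/12 light. Lesion diameter was measured at 5 DPI against the untreated inoculated control, ten replicates.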

[2] = system: Botrytis cinerea B05.10 isolate; assay: Greenhouse whole plant assay (tomato 'Lanai', disease severity); type: in vivo; conditions: final rating day (rating #3), three runs, four-week-old 'Lanai' tomato plant

B1: GS2297: dsRNA trigger targeting B. cinerea Bcrpb5 (XM_024693733.1); trigger SEQ ID NO 23, RNA 35, reverse complement 47 (nucleic acid, listed as Botrytis cinerea)
sense: UGCACCAUCAGGUCCCGCUCAAAAGAUUAUUCCCGCUGUCGCAUCCGAGACAAGAAUCGAGACCUUCGUCGAGCAAGAUUUACUUGUCAAUAUUACACAUCAUGAAUUGGUUCCCAAGCAUGUUUUGUUAAGUAGAGAAGAGAGGGCCAAGUUGUUGUCAAGAUAUAGAUUGAAGGAUACUCAACUCCCACGUAUUCAGGCUGCGGAUCCAGUUGCAAAAUAUUUGGGAUUGAGAAGAGGGCAGGUCGUUAAGAUUAUCAGAAAGUCGGAAACUGCUGGUCGUUAUGCCAGUUACAGAUUGUGCGUAUAAUGGAGCUGGAGGGUAGAUGAUUUGGUGUUAAUAACUAGGGAGUUUCUUGGGAAAAAUUUGCAUAUUUGGGGAAGGCGUAAUAGGCUGGAAGAAAGACUGAGGAUGAGAUUGUCUAUUUUGGCUUUCCAGGAAGCAAUACUUUGAGACAUGAAAUUUGAUAUUAAAUUUCUUGUUCUGUAUAUUUCUGAUAGUUUCAGAGCUUUUCAAUAAGAUCUAUUCUACAGUUUUAAGAAUCCAGACUCACCCUUUGAGAAGCUCAUACAAAGUUCCUUCCUA
antisense: UAGGAAGGAACUUUGUAUGAGCUUCUCAAAGGGUGAGUCUGGAUUCUUAAAACUGUAGAAUAGAUCUUAUUGAAAAGCUCUGAAACUAUCAGAAAUAUACAGAACAAGAAAUUUAAUAUCAAAUUUCAUGUCUCAAAGUAUUGCUUCCUGGAAAGCCAAAAUAGACAAUCUCAUCCUCAGUCUUUCUUCCAGCCUAUUACGCCUUCCCCAAAUAUGCAAAUUUUUCCCAAGAAACUCCCUAGUUAUUAACACCAAAUCAUCUACCCUCCAGCUCCAUUAUACGCACAAUCUGUAACUGGCAUAACGACCAGCAGUUUCCGACUUUCUGAUAAUCUUAACGACCUGCCCUCUUCUCAAUCCCAAAUAUUUUGCAACUGGAUCCGCAGCCUGAAUACGUGGGAGUUGAGUAUCCUUCAAUCUAUAUCUUGACAACAACUUGGCCCUCUCUUCUCUACUUAACAAAACAUGCUUGGGAACCAAUUCAUGAUGUGUAAUAUUGACAAGUAAAUCUUGCUCGACGAAGGUCUCGAUUCUUGUCUCGGAUGCGACAGCGGGAAUAAUCUUUUGAGCGGGACCUGAUGGUGCA
With B1 as the molecule, how does the “Average % Reduction in Lesion Size” value ([1]; 30 ppm) read?
Its value is 27.63%.

What about the “Average % Reduction in Lesion Size” value ([1]; 50 ppm) of the same molecule?
Its value is 24.35%.

And the “% control” value ([2]; 8 g ai/ha)?
The value was 6%.

What about the “% control” value ([2]; 25 g ai/ha) of the same molecule?
Its value is 29%.
